Experimental data: PMC12262204
pKd: −log10 of the molar value. Like-named read-outs stand apart in the source and are kept apart here.

Tests used:
Experiment in all cases: BLI
[1] = target: T1, Biotin-CGRP(8-37)NH2[N31D/S34P/K35W/A36S] (human)
T1 sequence (P06881 90-119 with N31D S34P K35W A36S, looked up): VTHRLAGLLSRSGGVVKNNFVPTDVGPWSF

[2] = target: T1, Biotin-CGRP(8-37)NH2[N31D/S34P/K35W/A36S] (human); remark: listed apart in the source
[3] = target: biotin-CGRP(8-37)NH2 (human)

RAMP1.24-111-(GS)5-CLR.29-134-H6 (CLR:RAMP1 ECD fusion protein) (from UniProt O60894 24-111; Q16602 29-134) (receptor)
residence time [1]: 132 s | half-life [2]: 1.52 min | residence time [2]: 2.18 min | pKd [3]: 4.28 | koff [3]: 3.3 s⁻¹ | kon [3]: 63300 M⁻¹ s⁻¹
